Data set [1] is described as follows: catalytic activity and herbicide resistance of mutants of SEQ ID NO:14 in extracts. The data set is classed as biochemical, Avena sativa. The text has this:
These further mutations can all be optionally combined with the resistance conferring mutations to produce catalytically active variants of HPPD herbicide resistant enzymes of the current invention.

Data set [2] can be described thus: Km and kcat of expressed HPPDs (HPLC/UV quantitation of homogentisate). It is filed as biochemical, Avena sativa. The following applies: for V217I, L271I, L271V, V258M, A326R estimated from initial rates in cell extracts, pH 7.0, 25° C., 120 μM HPP. How it is done:
The assay solution was transferred to Chromacol 03-CVG HPLC vials, sealed and the amount of homogentisate formed in a 40 μl aliquot determined by injection onto a reverse phase Aqua C18 5μ 75×4.6 mm HPLC column running 5.5% acetonitrile 0.1% TFA (Buffer A) at 1.5 ml/min. The column was eluted at 1.5 ml/minute using a 2 minute wash in buffer A, followed by a 2 minute wash in a 30/70 mixture of buffer A and 100% Acetonitrile, and a further 3.5 minute wash in buffer A. The elution of homogentisate was monitored by UV at 292 nm and the amount formed in each reaction quantified by comparison with a standard calibration curve.
Km and Vmax values were determined (for example FIG. 1) using a non linear least squares fit using Grafit 4™ software (Erithacus Software, Middlesex, UK). Kcat values were determined by dividing the maximum rate, Vmax expressed in nmol/second by the number of nmoles of HPPD enzyme (based on the concentration determined by active-site titration).
Experiments were carried out as described for Table 4. ‘Sulc’ denotes sulcotrione and ‘nd’ means ‘no data’. For V217I, L271I, L271V, V258M and A326R, the relative values of kcat were estimated from comparisons of the initial rates in cell extracts of similarly prepared and expressed HPPDs in conventional enzyme activity assays at pH 7.0, 25° C. and at a substrate concentration of 120 μM HPP.

Positions count from the first letter of the chain named. Names may count otherwise.

B1: S415K: S415K mutant of SEQ ID NO:14 (protein)
chain: MPPTPATATGAAAAAVTPEHAARSFPRVVRVNPRSDRFPVLSFHHVELWCADAASAAGRFSFALGAPLAARSDLSTGNSAHASLLLRSGALAFLFTAPYAPPPQEAATAATASIPSFSADAARTFAAAHGLAVRSVGVRVADAAEAFRVSVAGGARPAFAPADLGHGFGLAEVELYGDVVLRFVSYPDETDLPFLPGFERVSSPGAVDYGLTRFDHVVGNVPEMAPVIDYMKGFLGFHEFAEFTAEDVGTTESGLNSVVLANNSEAVLLPLNEPVHGTKRRSQIQTYLEYHGGPGVQHIALASNDVLRTLREMRARTPMGGFEFMAPPQAKYYEGVRRIAGDVLSEEQIKECQELGVLVDRDDQGVLLQIFTKPVGDRPTFFLEMIQRIGCMEKDEVGQEYQKGGCGGFGKGNFKELFKSIEDYEKSLEVKQSVVAQKS
modifications: mutant HPPD polypeptide
On to B1, for which the “catalytic activity and resistance to sulcotrione relative to control, unmutated SEQ ID NO:14” value in data set [1] was “neutral mutations”.

B2: V258K: V258K mutant of SEQ ID NO:14 (protein)
chain: B1 chain with V258K, K415S
modifications: mutant HPPD polypeptide
With B2, the “catalytic activity and resistance to sulcotrione relative to control, unmutated SEQ ID NO:14” value in data set [1] is “neutral mutations”.

B3: G254A: G254A mutant of SEQ ID NO:14 (protein)
chain: B1 chain with G254A, K415S
modifications: mutant HPPD polypeptide
Consider B3, for which the “catalytic activity and resistance to sulcotrione relative to control, unmutated SEQ ID NO:14” value in data set [1] is given as “neutral mutations”.

B4: K411T: K411T mutant of HPPD SEQ ID NO:14 (protein)
chain: B1 chain with K411T, K415S
modifications: mutant HPPD polypeptide
As to B4, the “Rate: kcat relative to non-mutated HPPD SEQ ID NO:14” value in data set [2] is 1.

B5: V258M: V258M mutant of HPPD SEQ ID NO:14 (protein)
chain: B1 chain with V258M, K415S
modifications: mutant HPPD polypeptide
As to B5, in data set [2], the “Rate: kcat relative to non-mutated HPPD SEQ ID NO:14” value is on record as 1. The “catalytic activity and resistance to sulcotrione relative to control, unmutated SEQ ID NO:14” value in data set [1] is “neutral mutations”.

B6: L269M: L269M mutant of SEQ ID NO:14 (protein)
chain: B1 chain with L269M, K415S
modifications: mutant HPPD polypeptide
As for B6, in data set [1], the “catalytic activity and resistance to sulcotrione relative to control, unmutated SEQ ID NO:14” value is listed as “neutral mutations”.

B7: S415Q: S415Q mutant of SEQ ID NO:14 (protein)
chain: B1 chain with K415Q
modifications: mutant HPPD polypeptide
B7: the “catalytic activity and resistance to sulcotrione relative to control, unmutated SEQ ID NO:14” value in data set [1] is “neutral mutations”.

B8: T372S: T372S mutant of SEQ ID NO:14 (protein)
chain: B1 chain with T372S, K415S
modifications: mutant HPPD polypeptide
B8: in data set [1], the “catalytic activity and resistance to sulcotrione relative to control, unmutated SEQ ID NO:14” value is given as “neutral mutations”.

B9: G254S: G254S mutant of SEQ ID NO:14 (protein)
chain: B1 chain with G254S, K415S
modifications: mutant HPPD polypeptide
In the case of B9, the “catalytic activity and resistance to sulcotrione relative to control, unmutated SEQ ID NO:14” value in data set [1] is listed as “neutral mutations”.

B10: A326S: A326S mutant of SEQ ID NO:14 (protein)
chain: B1 chain with A326S, K415S
modifications: mutant HPPD polypeptide
Regarding B10, the “catalytic activity and resistance to sulcotrione relative to control, unmutated SEQ ID NO:14” value in data set [1] was “neutral mutations”.

B11: I421L: I421L mutant of SEQ ID NO:14 (protein)
chain: B1 chain with K415S, I421L
modifications: mutant HPPD polypeptide
Consider B11, for which, in data set [1], the “catalytic activity and resistance to sulcotrione relative to control, unmutated SEQ ID NO:14” value is listed as “neutral mutations”.

B12: L269F: L269F mutant of SEQ ID NO:14 (protein)
chain: B1 chain with L269F, K415S
modifications: mutant HPPD polypeptide
Regarding B12, the “catalytic activity and resistance to sulcotrione relative to control, unmutated SEQ ID NO:14” value in data set [1] is “neutral mutations”.

B13: I299M: I299M mutant of SEQ ID NO:14 (protein)
chain: B1 chain with I299M, K415S
modifications: mutant HPPD polypeptide
In the case of B13, the “catalytic activity and resistance to sulcotrione relative to control, unmutated SEQ ID NO:14” value in data set [1] is reported as “neutral mutations”.

B14: M325L: M325L mutant of HPPD SEQ ID NO:14 (protein)
chain: B1 chain with M325L, K415S
modifications: mutant HPPD polypeptide
For the molecule B14, the “Rate: kcat relative to non-mutated HPPD SEQ ID NO:14” value in data set [2] is 1.2.

B15: L358M: L358M mutant of HPPD SEQ ID NO:14 (apparently the change of SEQ ID NO:24) (protein)
chain: B1 chain with L358M, K415S
modifications: mutant HPPD polypeptide
Regarding B15, the “Rate: kcat relative to non-mutated HPPD SEQ ID NO:14” value in data set [2] is recorded as 0.7.

B16: S420A: S420A mutant of SEQ ID NO:14 (protein)
chain: B1 chain with K415S, S420A
modifications: mutant HPPD polypeptide
On to B16, for which the “catalytic activity and resistance to sulcotrione relative to control, unmutated SEQ ID NO:14” value in data set [1] is on record as “neutral mutations”.

B17: V258I: V258I mutant of SEQ ID NO:14 (protein)
chain: B1 chain with V258I, K415S
modifications: mutant HPPD polypeptide
For B17, in data set [1], the “catalytic activity and resistance to sulcotrione relative to control, unmutated SEQ ID NO:14” value was “neutral mutations”.

B18: A326R: A326R mutant of HPPD SEQ ID NO:14 (protein)
chain: B1 chain with A326R, K415S
modifications: mutant HPPD polypeptide
For the molecule B18, the “Rate: kcat relative to non-mutated HPPD SEQ ID NO:14” value in data set [2] was 1.2.

B19: E416Q: E416Q mutant of SEQ ID NO:14 (protein)
chain: B1 chain with K415S, E416Q
modifications: mutant HPPD polypeptide
Turning to B19, the “catalytic activity and resistance to sulcotrione relative to control, unmutated SEQ ID NO:14” value in data set [1] is given as “neutral mutations”.

B20: V258A: V258A mutant of SEQ ID NO:14 (protein)
chain: B1 chain with V258A, K415S
modifications: mutant HPPD polypeptide
Take B20: the “catalytic activity and resistance to sulcotrione relative to control, unmutated SEQ ID NO:14” value in data set [1] was “neutral mutations”.

Values taken from patent US9175305B2, “Mutant hydroxyphenylpyruvate dioxygenase polypeptides and methods of use” (Syngenta Participations AG, priority 2009, dated 2015).
